Here are results for two substances from article PMC4144766.

The target in test [1] is YFP^N-TaNPSN11 (full-length TaNPSN11 fused to the N-terminal part of YFP) (Triticum aestivum (common wheat)). Briefly: split reporter (BiFC, NanoBiT); BiFC in tobacco (Nicotiana benthamiana) protoplasts; YFP^N (pSY736) and YFP^C (pSY735) fusions co-expressed by the polyethylene glycol method; fluorescence monitored 24-48 hours after transformation; fluorescent and observed cells counted from ten fields of vision.
YFP^N-TaNPSN11 (full-length TaNPSN11 fused to the N-terminal part of YFP) (Triticum aestivum (common wheat)), sequence (main, as listed by the source): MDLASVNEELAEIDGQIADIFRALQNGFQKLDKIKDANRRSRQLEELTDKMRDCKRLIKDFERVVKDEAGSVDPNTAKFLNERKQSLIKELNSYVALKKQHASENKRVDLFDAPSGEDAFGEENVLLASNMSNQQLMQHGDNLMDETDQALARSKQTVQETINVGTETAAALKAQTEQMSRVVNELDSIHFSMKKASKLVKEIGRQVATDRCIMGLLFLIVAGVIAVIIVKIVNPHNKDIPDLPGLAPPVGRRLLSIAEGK

Test [2] has as its target YFP^N-TaHSP90 (Triticum aestivum). The test is described as above.

Consider “YFP^C-TaSYP132 (full-length TaSYP132 fused to the C-terminal part of YFP) (natural protein)”, for which the ratio of fluorescent cells in test [1] was determined as 0.06. For the substance YFP^C-TaRAR1 (natural protein), in test [2], the ratio of fluorescent cells is 0.25.
